From US7521540B2, “CYR61 compositions and methods” (Munin Corporation, priority 1996, dated 2009)

Experiments:
HUVE cells = test: HUVE cell attachment to murine Cyr61-coated plates; assay type: cell-based, human
Protocol: Another embodiment of the invention is directed to the use of Cyr61 to mediate cellular attachment to the extracellular matrix. Induction of cellular adhesion was investigated using murine Cyr61, fibronectin, and bovine serum albumin (BSA). Immunological 96-well plates (Falcon brand) were coated with 50 μl of 0.1% BSA in PBS at 4° C. in the presence of 0-30 μg/ml concentrations of murine Cyr61 or fibronectin. After two hours exposure to the coating solution, non-diluted immune or pre-immune antisera (30 μl/well), or affinity-purified anti-Cyr61 antibodies were added. For some wells, the coating mixture was adjusted to 10 mM DTT or 100 mM HCl. After 16 hours incubation, the coating solution was removed and the well surface was blocked with 1% BSA in phosphate-buffered saline (PBS) for 1 hour at room temperature. HUVE cells were plated in Ham's complete F12K medium [GIBCO-BRL, Inc.; Ham, Proc. Natl. Acacd. Sci. (USA) 53:786 (1965)] at 5×10^3-10^4 cells/well. Cycloheximide was added to 100 μg/ml immediately before plating and monensin was added to 1 μM 14 hours before plating. After a 2-hour incubation at 37° C., the wells were washed with PBS and attached cells were fixed and stained with methylene blue. The attachment efficiency was determined by quantitative dye extraction and measurement of the extract absorbance at 650 nm. Oliver et al., J. Cell. Sci. 92:513-518 (1989).

[1] = test system: Human Microvascular Endothelial Cells; test: Endothelial cell migration, inverted modified Boyden chamber; assay type: cell-based
Protocol: In an alternative in vitro assay for angiogenic activity, an assay for endothelial cell migration was developed. […] Primary Human Microvascular Endothelial Cells (HMVEC PO51, Clonetics, San Diego, Calif.) were maintained in DME with 10% donor calf serum (Flow Laboratories, McLean, Va.) and 100 μg/ml endothelial celi mitogen (Biomedical Technologies Inc., Stoughton, Mass.). The cells were used between passages 10 and 15. To measure migration, cells were starved for 24 hours in DME containing 0.1% BSA, harvested, resuspended in DME with 0.1% BSA, and plated at 1.75×10^4 cells/well on the lower surface of a gelatinized 0.5 μm filter (Nucleopore Corporation, Pleasanton. Calif.) in an inverted modified Boyden chamber. After 1-2 hours at 37° C., during which time the cells were allowed to adhere to the filter, the chamber was reverted to its normal position. To the top well of separate chambers, basic Fibroblast Growth Factor (a positive control), Cyr61, or a negative control solution (conditioned medium known to lack chemoattractants or DME plus BSA, see below) was added at concentrations ranging from 10 ng/ml to 10 μg/ml. Chambers were then incubated for 3-4 hours at 37° C. to allow migration. Chambers were disassembled, membranes fixed and stained, and the number of cells that had migrated to the top of the filter in 3 high-powered fields was determined. Tolsma et al., J. Cell. Biol. 122:497-511 (1993) (incorporated by reference), and references cited therein. DME with 0.1% BSA was used as a negative control and either bFGF (10 ng/ml) or conditioned media from angiogenic hamster cell lines (20 μg/ml total protein) were used as positive controls. Rastinejad et al., Cell 56:345-355 (1989). Each sample was tested in quadruplicate (test compound such as Cyr61, positive control, conditioned medium as a negative control, and DME plus BSA as a negative control) in a single experiment; experiments were repeated at least twice.
To allow comparison of experiments performed on different days, migration data is reported as the percent of maximum migration towards the positive control, calculated after subtraction of background migration observed in the presence of DME plus BSA. […] Very high concentrations of thrombospondin (TSP) caused endothelial cells to detach from the membrane. Detachment was detected by counting cells on the lower face of the membrane. When cell loss exceeded 10%, the number of migrated cells was corrected for this loss. […] At 10 ng/ml, Cyr61 induced an average of 64 cells to migrate per three high-powered fields examined.

[2] = test system: 1064SK primary human foreskin fibroblasts; test: Fibroblast adhesion assay (methylene blue, A620); assay type: cell-based
Protocol: The ability of Cyr61 to mediate cell adhesion in normal fibroblasts was investigated. Microtiter wells were coated with purified recombinant Cyr61 protein, and 1064SK primary human foreskin fibroblasts were allowed to adhere under serum-free conditions. […] 50 μl cell suspensions were plated on microtiter wells coated with varying concentrations (0.5-5.0 μg/ml) of Cyr61 protein. After incubation at 37° C. for 30 minutes, adherent cells were fixed and stained with methylene blue.
In another experiment, microtiter wells were coated with either BSA, Cyr61 (2 μg/ml), or vitronectin (VN; 0.5 μg/ml) and blocked with affinity-purified anti-Cyr61 antibodies for one hour at 37° C. before 1064SK cells were plated.
The effects of divalent cations in cell adhesion to Cyr61 was also investigated. […] Data are means from triplicate determinations. […] Inhibition by Ca^2+ is characteristic of adhesion through some members of the β1 family of integrins, including receptors that bind type I collagen, laminin, and vitronectin (integrins α2β1, α6β1, and αVβ1) in fibroblasts, as well as the lymphocyte-specific integrin αLβ2.
The effects of RGD peptides on Cyr61-mediated fibroblast binding was tested by plating cells in wells coated with Cyr61 (2 μg/ml). Type I collagen (2 μg/ml) or vitronectin (0.5 μg/ml), 2 mM GRGDSP or GRGESP peptide was then added.
Cells were also pre-incubated with 40 μg/ml monoclonal antibodies against the integrin α5 or the integrin αV subunits at room temperature for 30 minutes, then plated on wells coated with Cyr61 (2 μg/ml), vitronectin (0.5 μg/ml) or fibronectin (FN, 1 μg/ml). […] The data are means, representative of three experiments.
The 1064 SK cells were also analyzed using the monoclonal antibody JBIA, which binds the β1 integrin subunit. Cells were pre-incubated with the antibody (50 μg/ml) before plating on microtiter wells coated with Cyr61 (2 μg/ml), Type I collagen (2 μg/ml), or vitronectin (0.5 μg/ml). […] Data are means, representative of three experiments.
To identify the specific β1 integrin that mediates fibroblast adhesion to Cyr61, the inhibitory effects of function-blocking monoclonal antibodies were tested against various integrin α subunits. […] The data are means, representative of at least three experiments.

B1: Cyr61: Cysteine-rich ECM signaling protein; murine sequence SEQ ID NO:2, recombinant from Baculovirus-infected Sf9 cells (protein, listed as Mus musculus)
chain: MSSSTFRTLAVAVTLLHLTRLALSTCPAACHCPLEAPKCAPGVGLVRDGCGCCKVCAKQLNEDCSKTQPCDHTKGLECNFGASSTALKGICRAQSEGRPCEYNSRIYQNGESFQPNCKHQCTCIDGAVGCIPLCPQELSLPNLGCPNPRLVKVSGQCCEEWVCDEDSIKDSLDDQDDLLGLDASEVELTRNNELIAIGKGSSLKRLPVFGTEPRVLFNPLHAHGQKCIVQTTSWSQCSKSCGTGISTRVTNDNPECRLVKETRICEVRPCGQPVYSSLKKGKKCSKTKKSPEPVRFTYAGCSSVKKYRPKYCGSCVDGRCCTPLQTRTVKMRFRCEDGEMFSKNVMMIQSCKCNYNCPHPNEASFRLYSLFNDIHKFRD
For B1, the “HUVE cell attachment, A650” value (HUVE cells; coating 1 μg/ml) was 0.1 A650, the “HUVE cell attachment, A650” value (HUVE cells; coating 30 μg/ml) was 0.8 A650 and the “migrated cells per three high-powered fields” value ([1]; 10 ng/ml) was 64 cells. For the same molecule, the “migrated cells per three high-powered fields” value ([1]; 100 ng/ml) was “approximately 72 cells”, the “migrated cells per three high-powered fields” value ([1]; 1 μg/ml) was 87 cells and the “migrated cells per three high-powered fields” value ([1]; 10 μg/ml) was “approximately 57 cells”. The “migrated cells per three high-powered fields” value ([1]; approximately 7 μg/ml) was “about 61 cells”, the “coating concentration at which maximal adhesion was reached” value [2] was 1 µg/mL and the “inhibition by anti-α6 antibody of binding mediated by the coated protein” value ([2]; anti-α6 20 μg/ml) was 78%. The “1064SK adhesion, absorbance” value ([2]; coating 0.5 μg/ml) was “about 0.3 A620”, the “1064SK adhesion, absorbance” value ([2]; coating 1-5 μg/ml) was 0.45-0.55 A620 and the “support of 1064SK fibroblast adhesion” value ([2]; protein coated on wells) was “dose-dependent and saturable”.
